Where a chain is given by its changes, count along the chain named.
Molecular target: eOD-GT8 (monomeric ligand) (Human immunodeficiency virus 1, …)

B1: g28v2-D46-7_CLK09 (antibody, V domains shown)
VH: QVQLVQSGAEVKKPGASVKVSCKASGYTFTGYHMHWVRQAPGQGPEWMGWINPNGGGTNYAQKFQGRVTMTRDTSISTAYMELSRLRSDDTAVFYCAPVLADYGWRFDYWGQGTLVTVSS
VL: DIQMTQSPSSLSASVGGRVTITCQASQDISSYLNWYQQKPGKAPKLLIYDASNLEAGVPSRFSGSGSGTDFAFTISSLQPEDIATYYCQQYEFFGGGTKVEIK
- Kd: 57.3 nM

B2: g28v2-D58-7_CLK09 (antibody, V domains shown)
VH: B1 VH with H33Y, M34I, P45L, I51M, N54T, S77N, F94Y, A97T, G104R
VL: B1 VL with S14F, G17D, D28G, I29V, S31K, A56T, A72T
- Kd: 0.512 nM

B3: g28v2-D46-8_CLK09 (antibody, V domains shown)
VH: QVQLVQSGAEVKKPGASVRVSCKASGYTFTDYYMHWVRQAPGQGLEWMGWINPNNGGINYAHKFQGRVTMTRDTSISTAYMELSRLRSDDTAVYYCTTALAGHGWRFDYWGQGTLVTVSS
VL: B1 VL with D28G, S31T, A51V, A56T, A72T, I83F
- Kd: 0.303 nM

B4: g28v2-D58-10_CLK19 (antibody, V domains shown)
VH: B1 VH with G31D, P45L, N54R, E82D, F94Y, A97T, D102T, Y103F, G104R
VL: not shown
- Kd: 3.69 nM

B5: g28v2-D58-9_CLK09 (antibody, V domains shown)
VH: QVQLVQSGAEVKKPGASVKVSCKASGNTFTGNYIHWIRQAPGQGLEWMGWLNPNSGGTNYAQQLQGRVTMTRDTSISTAYMELRRLRSDDTAVYYCARVEGLWFGKEWAFDIWGQGTMVTVSS
VL: B1 VL with G17D, D28G, I29V, S31N, P44L, A51V, A56T, A72T
- Kd: 0.0455 nM

B6: g28v2-D38-6_CLK19 (antibody, V domains shown)
VH: QVQLVQSGAEVREPGASVKVSCKASGYTFTGYYMHWVRQAPGQGLEWMGWINPNRGGTNLARKLQDRVTMTRDTSLSTAYMELRRLRTDDTAVYYCARVGEKWTFDIWGQGTMVTVSS
VL: DLQMTQSPSSLSASVGDRVTITCQASQDINNYLNWYQQKPGRAPKLLIYDTSNLETGVPSRFSGSGSGTDFTFTISSLQPEDIATYYCQQYAAFGPGTKVDIK
- Kd: 5.38 nM

B7: g28v2-D58-2_CLK09 (antibody, V domains shown)
VH: QIQLVQSGAEVKKPGASVKVSCKASGYTFTDYFLHWVRQAPGQDLEWMGWINPTFGGTNYARNFQGRVTMTRDTSISTAYLELNRLRSDDTAVYYCATDLASNRWRFDYWGQGTLVTVSS
VL: B1 VL with I2L, G17D, S31N, D50G, A56T, A72T, T85I
- Kd: 1.55 nM

B8: g28v2-D46-2_CLK19 (antibody, V domains shown)
VH: QVQLLQSGDEVKKPGASVRVSCKASGYTFTAYFLHWVRQAPGQGLEWMGWINPHSGGTNYAQRFQDRVTMTRDTSISTAYMELSRLRSDDTAVYYCTPVLADYRWRFAYWGQGTLVTVSS
VL: B6 VL with L2I, R42K, S52T, T56I, I83F
- Kd: 0.344 nM

B9: g28v2-D46-6_CLK09 (antibody, V domains shown)
VH: QVQLVQSGAEVKKPGASVKVSCKASGYTFTDYYMHWVRQAPGQGPEWMGWLNPNNGGRNFARKFQDRVTVTRDTSLSTAYMELSRLRSDDTAVYYCARVGEKWTFDIWGQGTMVTVSS
VL: B1 VL with S31N, A51V, A56T, A72T
- Kd: 0.211 nM

B10: g28v2-D58-3_CLK09 (antibody, V domains shown)
VH: QVQLVQSGADVRKPGASVKVSCKASGYTFTDYYVHWVRQAPGQGLEWMGWINPNRGGTNYPQKFQGRVTMTRDTSISTAYMELSRLRSDDTAVYYCALWFGEKKTFDIWGQGTMVTVSS
VL: B1 VL with G17D, D28G, I29V, S31N, A51V, A56T, A72T
- Kd: 1.38 nM

B11: g28v2-D46-5_CLK19 (antibody, V domains shown)
VH: B8 VH with F33Y, I51L, N52Y, H54Q, D66G, Y80F, T97A
VL: B6 VL with L2I, R42K, S52T, T56I
- Kd: 19.7 nM

B12: g28v2-D46-1_CLK19 (antibody, V domains shown)
VH: QVQLVQSGAEVKKPGAAVKVSCKASGYTFTGYYIHWVRQAPGQGLEWMGWVNPKTGATNYAQKFQGRVTMTRDTSISTTYMELRRLRSDETAVYFCATVMADFRWPFDYWGQGTLVTVSS
VL: B6 VL with L2I, R42K, E55G, T56I, A84G, A92D, A93T
- Kd: 10.8 nM

B13: g28v2-D58-1_CLK09 (antibody, V domains shown)
VH: B7 VH with L34I, E46V, T54I, F55Y, N63S, Y80F, S102D
VL: B1 VL with G17D, S30T, Y32F, A56T, A72T
- Kd: 20.7 nM

B14: g28v2-D46-10_CLK19 (antibody, V domains shown)
VH: B3 VH with K13R, D31G, N55R, I58V, E82D, Y94F
VL: B6 VL with D1N, L2I, I29T, N30S, R42K, T51A, S77G, A92E, A93T
- Kd: 1.35 nM

B15: g28v2-D46-12_CLK19 (antibody, V domains shown)
VH: QVQLVQSGAEVKKPGASVKVSCKASGYTFTGYFMHWVRQAPGQGLEWMGWINPNTGGVNYSQKFQGRVTMTRDTSITTAYMELSSLRSDDTAVYFCVTALAGHGWRFDYWGQGTLVTVSS
VL: B6 VL with L2I, I29T, N30S, R42K, T51A, S77G, A92E, A93T
- Kd: 0.183 nM

B16: g28v2-D58-6_CLK19 (antibody, V domains shown)
VH: QVQLVQSGAEVKKPGASVKVSCKASGYTFTGYYIHWFRQAPGQGLEWMGWMNPSYGGTNYAQKFQGRVTMTRDTSINTAYMELSRLRSDDTAVYYCTPVLAAYRWRFDYWGQGTLVTVSS
VL: B6 VL with L2I, S26N, D28A, N30R, R42K, T51V, P80S, A92E, A93T
- Kd: 1.06 nM

B17: g28v2-D46-11_CLK19 (antibody, V domains shown)
VH: B3 VH with N54H, N55S, I58V
VL: B6 VL with L2I, I29T, N30S, Q38L, R42K, T51A, S77G, A92E, A93T
- Kd: 0.0455 nM

B18: g28v2-D46-9_CLK19 (antibody, V domains shown)
VH: B3 VH with D31G, I58V
VL: B6 VL with L2I, S14Y, N30S, K39I, R42K, T51A, T56A, G66R, T69A, A93T
- Kd: 0.0475 nM

B19: g28v2-D58-11_CLK09 (antibody, V domains shown)
VH: B1 VH with G31D, M34I, P45L, N54R, E82D, F94Y, A97T, D102T, Y103F, G104R
VL: B1 VL with G17D, S30R, S31N, L54F, A56T, A72T
- Kd: 3.65 nM

B20: g5-D78-1_CLK19 (antibody, V domains shown)
VH: QVQLVQSGAEVKKPGASVKVSCKASGYTFTGYFLHWVRQAPGQGLEWMGWINPNRGGVNYAQKFQGRVTMTRDTSINTAYMELSRLRSDDSAVYYCTPVLTNFRWRFDFWGQGTLVTVSS
VL: B6 VL with L2I, N30K, R42T, A92E, A93T
- Kd: 8 nM

B21: g28v2-D46-4_CLK19 (antibody, V domains shown)
VH: B12 VH with G31D, V51I, K54T, T55Y, A57G, G66D, R87K, F95Y, A97T, F103Y
VL: B6 VL with L2I, T22S, R42K, E55G, A84G, A92D, A93T
- Kd: 0.106 nM

B22: g28v2-D46-3_CLK19 (antibody, V domains shown)
VH: QVQLVQSGAEVKKPGAAVKVSCKASGYTFTDYYMHWVRQAPGQGLEWMGWINPRYGGTNYAQKFQDRVTMTRDTSISTTYMELRRLKSDETAVYYCTTVMADYRWPFDYWGQGTLVTVSS
VL: B6 VL with L2I, T22S, Y32C, R42K, E55G, A84G, A92D, A93T
- Kd: 0.338 nM

B23: g28v2-D38-7_CLK19 (antibody, V domains shown)
VH: B9 VH with D31G, R58T, F64Y, V70M, T78S, I107F
VL: B6 VL with L2I, R42K, T56A, Y87F
- Kd: 0.0876 nM

B24: g28v2-D38-8_CLK19 (antibody, V domains shown)
VH: QVQLVQSGAEVKKPGASVKVSCKASGYSFSGYYMHWVRQAPGQGLEWMGWINPNHGGTNYAQKFQDRVTMTRDTSISTAYMELSRLRSDDTAVYFCARVDESWFGKKWTFDIWGQGTMVTVSS
VL: B6 VL with L2I, N30G, R42K, T72S, S76A, A92D, A93I
- Kd: 50.8 nM

B25: g28v2-D46-13_CLK19 (antibody, V domains shown)
VH: QVQLVQSGAEVKKPGASVKVSCKASGYTFTGNYMHWVRQAPGQGLEWMGWINPNSGGTNYAQKFQGRVTMTRDTSISTAHMELRSLRSDDTAVYYCARVEGSWFGKKWTFDIWGQGTMVTVSS
VL: B1 VL with D1A, G17D, S30T, S31N, A72T, S77G, Y87S, F93T, G96P, E101D
- Kd: 0.193 nM

B26: g28v2-D58-8_CLK09 (antibody, V domains shown)
VH: QVQLVQSGAEVKKPGASVKVSCKASGYTFTDYYLHWVRQAPGQGLEWMGWINPSTGGRNHARQFQGRVAMTRDTSISTAYMELSRLRSDDTAVYFCTPVLATFRWRFVYWGQGTLVTVSS
VL: B1 VL with G17D, D28G, I29V, S31N, A51V, A56T, A72T
- Kd: 0.444 nM

B27: g28v2-D38-9_CLK19 (antibody, V domains shown)
VH: B10 VH with D10E, R12K, D31V, V34M, R55S
VL: B6 VL with L2I, N30G, R42K, S65G, T69P, S77T, A84G, A92D, A93T
- Kd: 0.149 nM

B28: g28v2-D58-5_CLK19 (antibody, V domains shown)
VH: QVQLVQSGAEVKKPGASVKVSCKASGYTFTGYFIHWVRQAPGQGLEWMGWINPNRGGTNYAQKFQGRVTMTRDTSTSTAYMDLSRLRSDDTAMYYCTVVLAAYRWPFAYWGQGTLVTVSS
VL: DIRVTQSPSSLSASVGDRVTITCQANQDIRNYLNWYQQKPGKAPKLLIYDVSKLETGVPSRFSGSGSGTDFTFTISSLQSEDIATYYCQQYETFGPGTKVDIK
- Kd: 39 nM

B29: g28v2-D46-14_CLK19 (antibody, V domains shown)
VH: B10 VH with Q1R, D10E, R12K, D31G, V34I, Y80S
VL: DIQLTQSPSSLSASVGGRVTITCQASQDIHNYLNWYQQKPGKAPKILIHDVSNLETGVPSRFSGSRSGTDFTFTISSLLPEDIGTYYCQQYEFFGPGTKVDIK
- Kd: 12 nM

B30: g28v2-D58-4_CLK09 (antibody, V domains shown)
VH: B10 VH with D10E, R12K, T30I, D31G, V34I
VL: B1 VL with G17D, D28G, I29V, S31N, Y36F, P44L, A51V, A56T, A72T
- Kd: 3.48 nM

From article PMC11488661 (Science immunology, 2024)
